Consider 19 substances from patent publication US20250257137A1.

Broadly, the pKd is −log10 of the Kd, conventionally taken in molar units. What is called koff is the rate constant with which the complex falls apart. Lower therefore signals a long-lived complex. One may read the kon as the rate constant with which the complex forms. High values mean faster complex formation, low ones slower complex formation. One may read the EC50 (read off the curve) as the concentration at which the effect is half-maximal.

pKd: −log10 of the molar value.

In test [1] the target is anti-CMVpHLA antibody (available from Ajou University).
The target is the same in test [2]. This is another data set of the same source.
In test [3] the target is Fcµ receptor (R&D systems) (UniProt O60667). Put plainly: ELISA, Fcµ coated, anti-IgM-HRP; IMB-4011 = 100. A general note: ELISA stands for enzyme-linked immunosorbent assay.
The target in test [4] is pIgR (polymeric Ig receptor; R&D systems) (UniProt P01833). In words: ELISA, pIgR coated; IMB-4011 = 100 (Example 2-7).
The target in test [5] is Fcα/µ receptor (R&D systems) (UniProt Q8WWV6). Put plainly: ELISA, Fcα/µ coated; IMB-4011 = 100 (Example 2-7).
In test [6] the target is Fcµ receptor (R&D systems) (UniProt O60667). In words: ELISA, Fcµ coated; IMB-4011 = 100 (Example 2-7).
Test [7] addresses Fcα/µ receptor (R&D systems) (UniProt Q8WWV6). Put plainly: ELISA, Fcα/µ coated, anti-IgM-HRP; IMB-4011 = 100.
In test [8] the target is pIgR (polymeric Ig receptor; R&D systems) (UniProt P01833). Put plainly: ELISA, pIgR coated, anti-IgM-HRP; IMB-4011 = 100.
In test [9] the target is conjugate of FcRn and β2m antigen (ACRO biosystems) (UniProt P55899).

As to “[(CMVpHLA)2-(IgD hinge region)2-(IgM Fc region)]6-(J chain)0 (Fc fusion)”, in test [1], the pKd was 10.63, the koff amounted to 0.000197 s⁻¹ and the kon was determined as 8.44e+06 M⁻¹ s⁻¹.
The substance “[(CMVpHLA)2-(linker)0-(IgM Fc region)]5-(J chain) (from UniProt P01591 23-159) (Fc fusion)” returned an EC50 (read off the curve) in test [2] of 0.01 nM. In addition, the pKd in test [1] is 10.99.
In [3], “[(CMVpHLA)2-(linker)2-(IgG Fc region)-(IgM Fc region L126G)]5-(J chain) (from UniProt P0DOX6 341-576; P01591 23-159) (Fc fusion)” came in with a Relative binding ability to Fcµ receptor (%) of 7%.
Regarding “[(CMVpHLA)2-(linker)2-(IgG Fc region)-(IgM Fc region N125K)]5-(J chain) (from UniProt P0DOX6 341-576; P01591 23-159) (Fc fusion)”, the Relative binding ability to Fcµ receptor (%) in test [3] was 7%.
Substance “[(CMVpHLA)2-(linker)2-(IgG Fc region)-(IgM Fc region L126G)]5-(J chain R106W) (from UniProt P0DOX6 341-576; P01591 23-159) (Fc fusion)” came in with a Relative binding ability to pIgR (%) in test [4] of 2%. Also, the Relative binding ability to Fcα/µ receptor (%) in [5] was found to be 0.5%. Besides, the Relative binding ability to Fcµ receptor (%) in test [6] amounted to 3%.
For the substance “[(CMVpHLA)2-(linker)2-(IgG Fc region)-(IgM Fc region)]5-(J chain R106F) (from UniProt P0DOX6 341-576; P01591 23-159) (Fc fusion)”, the Relative binding ability to Fcα/µ receptor (%) in test [7] was found to be 7%.
In the case of “[(CMVpHLA)2-((GGGGS)3)2-(IgM Fc region)]5-(J chain) (from UniProt P01591 23-159) (Fc fusion)”, in [1], the pKd is 11.21.
In [8], “[(CMVpHLA)2-(linker)2-(IgG Fc region)-(IgM Fc region)]5-(J chain D105K) (from UniProt P0DOX6 341-576; P01591 23-159) (Fc fusion)” yielded a Relative binding ability to pIgR (%) of 8%.
In test [4], “[(CMVpHLA)2-(linker)2-(IgG Fc region)-(IgM Fc region L126G)]5-(J chain R106V) (from UniProt P0DOX6 341-576; P01591 23-159) (Fc fusion)” showed a Relative binding ability to pIgR (%) of 2%. Also, in test [5], the Relative binding ability to Fcα/µ receptor (%) was 0.4%. In test [6], this substance registered a Relative binding ability to Fcµ receptor (%) of 3%.
Take “[(CMVpHLA)2-(linker)2-(IgG Fc region)-(IgM Fc region)]5-(J chain R106 deletion) (from UniProt P0DOX6 341-576; P01591 23-159) (Fc fusion)”: the Relative binding ability to Fcα/µ receptor (%) in [7] was determined as 1%. This substance also displayed a Relative binding ability to Fcµ receptor (%) in [3] of 59%. Besides, in test [8], the Relative binding ability to pIgR (%) is 4%.
For the substance CMVpHLA (peptide-MHC), in test [1], the pKd was 8.74, the dissociation rate constant (koff) came to 0.00464 s⁻¹ and the kon turned out to be 2.52e+06 M⁻¹ s⁻¹.
Substance “[(CMVpHLA)2-(linker)2-(IgG Fc region)-(IgM Fc region)]5-(J chain N107K) (from UniProt P0DOX6 341-576; P01591 23-159) (Fc fusion)” had a Relative binding ability to pIgR (%) in test [8] of 8%.
Take “[(CMVpHLA)2-(linker)2-(IgG Fc region)-(IgM Fc region L126S)]5-(J chain R106W) (from UniProt P0DOX6 341-576; P01591 23-159) (Fc fusion)”: the Relative binding ability to pIgR (%) in test [4] came to 3%. The same substance gave a Relative binding ability to Fcα/µ receptor (%) in [5] of 1%. Besides, the Relative binding ability to Fcµ receptor (%) in [6] was found to be 3%.
In test [9], “[(CMVpHLA)2-(linker)2-(IgG Fc region)-(IgM Fc region)]5-(J chain) (from UniProt P0DOX6 341-576; P01591 23-159) (Fc fusion)” showed an EC50 (read off the curve) of 200 nM.
“[(CMVpHLA)2-(linker)2-(IgG Fc region)-(IgM Fc region L126S)]5-(J chain) (from UniProt P0DOX6 341-576; P01591 23-159) (Fc fusion)” yielded a Relative binding ability to Fcµ receptor (%) in test [3] of 7%. The Relative binding ability to pIgR (%) in test [8] amounted to 8%.
“[(CMVpHLA)2-(IgA hinge region)2-(IgM Fc region)]5-(J chain) (from UniProt P01591 23-159) (Fc fusion)” had a pKd in test [1] of 11.23.
For the substance “[(CMVpHLA)2-(linker)2-(IgG Fc region)-(IgM Fc region L126S)]5-(J chain R106V) (from UniProt P0DOX6 341-576; P01591 23-159) (Fc fusion)”, the Relative binding ability to pIgR (%) in [4] came to 2%. The same substance had a Relative binding ability to Fcα/µ receptor (%) in test [5] of 1%. The substance further returned a Relative binding ability to Fcµ receptor (%) in [6] of 3%.
In [7], “[(CMVpHLA)2-(linker)2-(IgG Fc region)-(IgM Fc region L126 deletion)]5-(J chain) (from UniProt P0DOX6 341-576; P01591 23-159) (Fc fusion)” showed a Relative binding ability to Fcα/µ receptor (%) of 1%. The substance further registered a Relative binding ability to Fcµ receptor (%) in test [3] of 12%. The substance further came in with a Relative binding ability to pIgR (%) in [8] of 6%.
As to “[(CMVpHLA)2-(IgD hinge region)2-(IgM Fc region)]5-(J chain) (from UniProt P01591 23-159) (Fc fusion)”, the EC50 (read off the curve) in test [2] was found to be 0.02 nM. Besides, in test [1], the negative logarithm of the Kd (pKd) is 11.17.
